According to PMC7035975 (Journal of molecular and cellular cardiology, 2019):

Biological target: the molecule itself
Test: SDS-PAGE and immunoblot of the PLB pentamer

B1: L31A phospholamban mutant (untagged) (natural protein, human, UniProt P26678 1-52, looked up)
chain: MEKVQYLTRSAIRRASTIEMPQQARQKLQNAFINFCLILICLLLICIIVMLL
  stoichiometry N: 5
